The labels stand for the following.
B1: G001_gp1_V08_VRC01c_144 (antibody, V domains shown)
VH: QVQLVQSGAEVKKPGASVKVSCKASGYTFSGHYMHWVRQAPGQGLEWMGWINPNSGGTNYAQKFQGRVTMTRDTSISSAYMELSRLRSDDTAVYYCATHTGSGSSWSFDSWGQGTLVTVSS
VL: DIQMTQSPSSLSASVGDRVTITCQASQDISNYLNWYQQKPGKAPKLLIYDASNLETGVPSRFSGSGSGTDFTFTISSLQPEDIATYYCQQYEYFGQGTRLEIK
B2: G001_gp1_V08_VRC01c_2021-0065 (antibody, V domains shown)
VH: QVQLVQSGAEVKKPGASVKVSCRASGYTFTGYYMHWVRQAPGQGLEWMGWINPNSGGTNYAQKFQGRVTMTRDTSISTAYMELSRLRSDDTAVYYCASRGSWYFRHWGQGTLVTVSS
VL: DIQMTQSPSSLSASVGDRVTITCQARHDISKYLNWYQQKPGKAPKLLIYDASDLETGVPSRFSGSGSGTDFTFTISSLQPEDIATYYCQQYDSFGGGTRVEIK
B3: G001_gp1_V08_VRC01c_2021-0052 (antibody, V domains shown)
VH: QVQLVQSGAEVKKPGASVKVSCKASGHTFSGYYMHWVRQAPGQGLEWMGWINPNSGGTNYAQKFQGRVTMTRDTSISTAYMELSRLRTYDTAVYYCARAYSSGWRFGWGQGTMVTVSS
VL: DIQMTQSPSSLSASVGDRVTITCQASQDITKYLNWYQQKPGQAPKLLIYDASNLETGVPSRFSGSGSGTYFTFTISSLQPEDIATYYCQQYDNFGGGTKVEIK
B4: G001_gp1_V08_VRC01c_147 (antibody, V domains shown)
VH: QVQLVQSGAEVKQPGASVKVSCKASGYTFTGYYIHWIRQAPGQGLEWMGWINPKSGGTNYARNFQGRVTMTRDTSISTSYLLLSRLRSDDTAVYYCFRGAEGWLLKYWGQGTLVTVSS
VL: DIQMTQSPSSLSASVGDRVTITCQASQDISNYLNWYQQKPGKAPKLLIYDASNLETGVPSRFSGSGSGTDFTFTISSLQPEDIATYFCQHYEFFGPGTKVDIK
B5: G001_gp1_V08_VRC01c_145 (antibody, V domains shown)
VH: QVQLVQSGAEVKKPGASVKVSCRASGYTFTAYYIHWVRQAPGQGLEWMGWINPNSGGTNYAQKFQGRVTMTRDTSISTAYMELRRLRSDDTAVYYCARRFVSSGYYYAYWGQGTLVTVSS
VL: EIVLTQSPGTLSLSPGERATLSCRASQSVSSSYLAWYQQKPGQAPRLLFYGASSRATGIPDRFSGSGSGTDFTLTISRLEPEDFAIYYCQHYETFGQGTKVEIK
B6: G001_gp1_V08_VRC01c_2021-0059 (antibody, V domains shown)
VH: QAQLMQSGAEVKKPGASVKVSCKASGYTFTDYYMHWVRQAPGQGLEWMGWINPNSGGTNYAQKFQGWVTMTRDTSISTAFMELSRLRSDDTAVYFCATTNRYTSTWLFDYWGQGTLVTVSS
VL: EIVLTQSPGTLSLSPGERATLSCRASQSVSSSYLAWYQQKPGQAPRLLIYGASNRATGIPDRFSGSGSGTDFTLTISRLEPEDFAVYYCQQYESFGQGTKLEIK
B7: G001_gp1_V08_VRC01c_158 (antibody, V domains shown)
VH: QVQLVQSGAEVKKPGASVKVSCKASGYTFTDYYMHWVRQAPGQGLEWMGWLNPNSGGTNYAQKFQDWVTMTRDTSIRTAYLELSRLKLDDTAIYYCARRIDYLDAFDIWGQGTMVTVSS
VL: EIVLTQSPGTLSLSPGERATLSCRASQSVSRRYLAWYQQKTGQAPRLLIYGASSRATGIPDRFSGSGSGTDFTLTISRLEPEDFAVYYCQQYEMFGQGTKVEIK
B8: G001_gp1_V08_VRC01c_2021-0060 (antibody, V domains shown)
VH: QVQLVQSGAEAKKPGASVKVSCKASGYTFTGYYMHWVRQAPGQGLEWMGWINPNSGGTNYAQKFQDWVTMTRDTSISTAYMELNRLRSDDTAVYYCATTGGTAVTAAHRWYFDLWGRGTLVTVSS
VL: EIVLTQSPGTLSLSPGDRATLSCRASQSVSSSYLAWYQQKPGQAPRLLIYGAASRATGIPDRFSGSGSETDFTLTISRLEPEDSAVYYCQHYEGFGQGTRLEIK
B9: G001_gp1_V08_VRC01c_149 (antibody, V domains shown)
VH: QVQLVQSGAEVKKPGASVKVSCKTSGYTFTDYYMHWVRQAPGQGLEWMGWINPNSGGTNYAQKFQGRVTMTRDTSIRTVYMELSWLRSDDTAVFYCARHYRSSGWDFDYWGQGTLVTVSS
VL: DIVLTQSPDSLTVSLGERATINCKSSPSGLYSSNNKNYLTWYQQKPGQPPKLLIYWASTRESGVPDRFSGSGSGTDFTLTISSLQAEDVAVYYCQQYETFGGGTKVEIK
B10: G001_gp1_V08_VRC01c_151 (antibody, V domains shown)
VH: QVQLVQSGAEVKKPGASVKVSCKASGYTFTDYYMHWVRQTPGQGLEWMGWMNPKSGGTNYALQFQGRVTMTRDTSISTAYMELSRLRSDDTAIYYCATKAYTNRAFDIWGQGTMVTVSS
VL: EIVLTQSPGTLSLSPGERATLSCRASQSVNSNSLAWYQQKPGQAPRLLIFAAYTRATGIPDRFSGSGSGTDFTLTISRLEPEDFAVYYCQQYDTFGQGTKVEIK
B11: G001_gp1_V08_VRC01c_2021-0063 (antibody, V domains shown)
VH: QVHLVQSGAEVKKPGASVKVSCKASGYTFTGYYMHWVRQAPGQGLEWMGWINPNSGGTNYAQKFQGRVTVTRDTSISTAYMELSRLRSDDTAVYYCATQTHSSGWFVGNNWHFDLWGPGTLVTVSS
VL: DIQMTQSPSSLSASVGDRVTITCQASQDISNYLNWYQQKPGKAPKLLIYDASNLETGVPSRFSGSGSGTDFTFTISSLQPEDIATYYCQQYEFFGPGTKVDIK
B12: G001_gp1_V08_VRC01c_142 (antibody, V domains shown)
VH: QVQLVQSGAEVKKPGASVKVSCKASGYTFTGDYMHWVRQAPGQGLEWMGWINPNSGGTNYAQKFQGWVTMTRDTSISTAYMEVRLRSDDTAVYYCARAGYSSSWGFGFWGQGTLVTVSS
VL: QSVLTQPPSVSGAPGERVTISCTGSSSNIGAGYDVHWYQQLPGTAPKLLIFGTSNRPSGVPDRFSGSKSGTSASLAITGLQAEDEADYYCQSYEFFGGGTKLTVL
B13: G001_gp1_V08_VRC01c_2021-0066 (antibody, V domains shown)
VH: QVQLVQSGAEVKKPGASVKVSCKASGYTFTGYYMHWVRQAPGQGLEWMGWINPNSGGTNYALKFQDWVTMTRDTSISTVYMELSRLRYDDTAVYYCARVNGDYGWNFDLWGRGTPVTVSS
VL: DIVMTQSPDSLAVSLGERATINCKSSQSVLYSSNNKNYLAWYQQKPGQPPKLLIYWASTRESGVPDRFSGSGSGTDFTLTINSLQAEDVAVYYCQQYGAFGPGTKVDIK
B14: G001_gp1_V08_VRC01c_153 (antibody, V domains shown)
VH: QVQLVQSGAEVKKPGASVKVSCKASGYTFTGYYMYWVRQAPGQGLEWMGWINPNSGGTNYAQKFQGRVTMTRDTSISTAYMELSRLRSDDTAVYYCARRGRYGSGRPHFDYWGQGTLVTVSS
VL: DIQMTQSPSSLSASVGDRVTITCQATQDISNYLNWYQHKPGKAPKLLIYDASTLVTGVPSRFSGSGYGTDFTFTISSLQPEDIATYYCQEYLLFGGGTKVEIK
B15: G001_gp1_V08_VRC01c_2021-0062 (antibody, V domains shown)
VH: QVQLVQSGAEVKKPGASVKVSCKASGYTFTGYYIHWVRQAPGQGLEWMGWINPNSGGTNYAQEFQDWVTMTRDTSISTAYMELSRLSSDDTAVFYCARAKYYDAWSGYYFDFWGQGTLVTVSS
VL: DIQMTQAPSTLSASVGDRVTITCRASETTSSWVAWYQQKPGKAPKVLIYDASSLQSGVPSRFSGSGSGTEFTLTISSLQPDDFATYYCQQYNTFGGGTKVEIK
B16: G001_gp1_V08_VRC01c_146 (antibody, V domains shown)
VH: QVQLVQSGAEVKKPGASVKVSCKASGYTFTDYYMYWVRQAPGQGLEWMGWINPNSGGTNYAQKFQGRVTMTRDTSITTAYMEVRRLRSDDTAMYYCARRPNPYSGYDFNAFDIWGQGTMVTVSS
VL: DIQMTQSPSTLSASVGDRVTITCRASQSISNWLAWYQQKPGKAPKLLIYKTSNLEGGVPSRFSGSGSGTEFTLTISSLQPDDLATYYCQQYEMFGQGTKVEIK
B17: G001_gp1_V08_VRC01c_2021-0057 (antibody, V domains shown)
VH: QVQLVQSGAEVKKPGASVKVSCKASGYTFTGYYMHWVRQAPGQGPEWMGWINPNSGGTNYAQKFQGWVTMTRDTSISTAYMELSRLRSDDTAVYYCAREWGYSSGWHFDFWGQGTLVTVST
VL: EIVLTQSPGSLSLSPGERATLSCRASQSGSSRYLAWYQQKPGQAPRLLIYGASNRATGIPNRFSGSGSGTDFVLTISRLEPEDFAVYYCQQYESFGPGTKVDIK
B18: G001_gp1_V08_VRC01c_2021-0055 (antibody, V domains shown)
VH: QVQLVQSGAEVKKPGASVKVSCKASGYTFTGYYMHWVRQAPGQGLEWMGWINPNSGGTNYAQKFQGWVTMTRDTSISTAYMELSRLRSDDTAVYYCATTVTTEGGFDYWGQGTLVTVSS
VL: QSALTQPPSASGSPGQSVTISCTGTSSDVGGYNYVSWYQQHPGKAPKLMIYEVSKRPSGVPDRFSGSKSGNTASLTVSGLQAEDEADYYCSSYEVFGTGTKVTVL
B19: G001_gp1_V08_VRC01c_2021-0056 (antibody, V domains shown)
VH: QVQLVQSGAEVKKPGASVTVSCKASGYTFTGYYMHWVRQAPGQGLEWMGWINPNSGGTNYAQKFQDWVTMTRDTSISTAYMELSRLRSDDTAVYYCATALGGSPGRIWSMDVWGQGTTVTVSS
VL: QSALTQPASVSGSPGQSITISCTGTSSDVGGSNYVSWYQQHPGKAPKLLIYDVSNRPSGVSSRFSGSKSGNTASLTISGLQAEDEADYYCSSYEVFGTGTKVTVL
B20: G001_gp1_V08_VRC01c_140 (antibody, V domains shown)
VH: QVQLVQSGAEVKMPGTSVKVSCKASGYTFTDYYMHWVRQAPGQGLEWMGWINPNSGGTNYEQRFQGRVTMTRDTSISTAYMDLRRLRSDDTAVYYCATSLVETSTHWAFDLWGQGTMVTVSS
VL: DFQMTQSPSTLSASVGDRVTITCRTSQSFSTWLAWYQQKPGKAPKLLIYEASSLQSGVPSRFSGSGSGTEFTLTISSLQPDDLATYYCQQYETFGQGTKVAIK
B21: G001_gp1_V08_VRC01c_141 (antibody, V domains shown)
VH: QVQLVQSGAEVKKPGASVKVSCKASGYSFTDYYMHWVRQAPGQGLEWMGWINPNSGGSNYAQKFQGRVTMTRDSFISTAYMELSRLRSDDTAVYYCAYYDSGTYRYWGQGTLVTVSS
VL: DIQMTQSPSTLSASVGDRVTITCRASQSISSWLAWFQQKPGKAPKLLIYKASSLESGVPSRFSGSGSGTEFTLTISSLQPDDFATYYCQQYETFGQGTKVEIK
B22: G001_gp1_V08_VRC01c_2021-0068 (antibody, V domains shown)
VH: QVQLVQSGAEVKKPGASVKVSCKASGYTFTGYYLHWVRQAPGQGLEWMGWINPNSGGTNYAQKFQGWVTMTRTTSISTAYLELSRLRSDDTAVYYCARSVYFDSSGFYYGYWGQGTLVTVSS
VL: DIQMTQSPSTLSASVGDRVTITCRASQSISSWLAWYQQKPGKAPKLLIYKASSLESGVPSRFSGSGSGTEFTLSISSLQPDDFATYYCQQYETFGQGTKVEIK
B23: G001_gp1_V08_VRC01c_143 (antibody, V domains shown)
VH: QVQLVQSGAEVRKPGASVKVSCKASGFTFSDYYIHWVRQAPGQGLEWMGWINPNSGGTNYARKFQGRVTMTRDRSISTAYMELSRLRSDDTAVYYCARGLHTSGWYFAFWGQGTLVTVSS
VL: DIQMTQSPSSLSASVGDRVTITCQARQDTSNYLHWYQQKPGKAPKLLIYDASKLEPGVPSRFSGSGSGTDFTFTISNLQPEDIGTYYCQQYEAFGGGTKVEIK
B24: G001_gp1_V08_VRC01c_2021-0053 (antibody, V domains shown)
VH: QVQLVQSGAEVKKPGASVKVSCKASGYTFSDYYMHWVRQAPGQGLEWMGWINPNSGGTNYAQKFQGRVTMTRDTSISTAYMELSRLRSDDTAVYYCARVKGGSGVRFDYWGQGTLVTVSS
VL: DIQMTQSPSSLSASVGDRVTITCQASQDISNYLNWYQQKPGKAPKLLIYDASNLETGVTSRFSGSGSGTDFTFTISSLQPEDIATYYCQQYVTFGGGTKVEIK

The experiment concerns the target eOD-GT8 (engineered outer domain germline-targeting version 8), monomer (HIV-1 gp120 engineered outer domain, …).
Take B1: the binding result is “binds”.
In the case of B2, the binding result is “binds”.
As to B3, the binding result is given as “binds”.
On to B4, for which the binding result is “binds”.
The entry for B5 is “binds”; for B6 it is “binds”.
As for B7, the binding result is listed as “binds”.
Turning to B8, the binding result is on record as “binds”.
On to B9, for which the binding result is “binds”.
Take B10: the binding result is “binds”.
Take B11: the binding result is on record as “binds”.
On to B12, for which the binding result is “binds”.
With B13, the binding result is reported as “binds”.
With B14, the binding result was “binds”.
The entry for B15 is “binds”; for B16 it is “binds”.
B17: the binding result is “binds”.
Consider B18, for which the binding result is on record as “binds”.
For the molecule B19, the binding result was “binds”.
Turning to B20, the binding result is listed as “binds”.
Turning to B21, the binding result is recorded as “binds”.
For the molecule B22, the binding result is given as “binds”.
On to B23, for which the binding result is given as “binds”.
With B24, the binding result is listed as “binds”.

The record behind these values is publication PMC12377726 (Proceedings of the National Academy of Sciences of the …, 2025).
